From the supplement of paper PMC7877785
± gives the uncertainty stated by the source.

Assay: self-splicing fitness, log relative to wild type (ln ratio); higher = more splicing; Tetrahymena group I intron in knt gene, E. coli kanamycin selection, DiMSum; sequences stand for … in CUCUCU…GGAGGGAAAAGUUAUCAGGCAUGCACCUGGUAGCUAGUCUUUAAACCAAUAGAUUGCAUCGGUUUAAAAGGCAAGACCGUCAAAUUGCGGGAAAGGGGUCAACAGCCGUUCAGUACCAAGUCUCAGGGGAAACUUUGAGAUGGCCUUGCAAAGGGUAUGGUAAUAAGCUGACGGACAUGGUCCUAACCACGCAGCCAAGUCCUAAGUCAACAGAUCUUCUGUUGAUAUGGAUGCAGUUCACAGACUAAAUGUCGGUCGGGGAAGAUGUAUUCUUCUCAUAAGAUAUAGUCGGACCUCUCCUUAAUGGGAGCUAGCGGAUGAAGUGAUGCAACACUGGAGCCGCUGGGAACUAAUUUGUAUGCGAAAGUAUAUUGAUUAGUUUUGGAGUACUCGUGGUCG
How it was run: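 Library with all eight P1ex-region intron nucleotides randomised, intron inside the knt kanamycin-resistance gene on pET-22b(+), in E. coli BL21(DE3). Cells grew overnight at 37°C or 30°C on LB agar with or without 25 μg/mL kanamycin (plus 100 μg/mL carbenicillin, 50 μM IPTG, 0.2% rhamnose), in six replicate transformations. Pooled colonies were amplicon-sequenced on Illumina HiSeq 2500. DiMSum fitness is the error-weighted combination of wild-type-normalised replicate fold changes, kanamycin versus none.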

Sequence | self-splicing fitness (ln) (30 °C) | self-splicing fitness (ln) (37 °C)
GUGGAGCAAUAUUACGUUGA | -3.13 ± 0.47 | -1.5 ± 0.25
GGUCAGCAAUAUUACGAAUC | -0.132 ± 0.14 | 0.365 ± 0.13
AUACAGCAAUAUUACGACUU | -0.367 ± 0.065 | 0.271 ± 0.081
CCGAAGCAAUAUUACGCUCC | -2.86 ± 0.44 | –
GUAUAGCAAUAUUACGGUCG | -2.06 ± 0.15 | 0.0791 ± 0.15
CUGAAGCAAUAUUACGCGCC | -3.07 ± 0.31 | –
CAUUAGCAAUAUUACGGCCG | 0.721 ± 0.13 | 0.409 ± 0.14
ACGAAGCAAUAUUACGCAAU | -1.6 ± 0.091 | -1.42 ± 0.094
UCACAGCAAUAUUACGGUAU | -3.42 ± 0.19 | -3.05 ± 0.18
CCGGAGCAAUAUUACGUGUC | -3.36 ± 0.14 | -2.82 ± 0.14
GCCGAGCAAUAUUACGGAUA | -1.68 ± 0.14 | -0.192 ± 0.13
AGUUAGCAAUAUUACGAGGU | -3.43 ± 0.16 | -1.55 ± 0.17
GUGGAGCAAUAUUACGGCUG | -2.49 ± 0.21 | -2.1 ± 0.32
GGCAAGCAAUAUUACGCUGA | -1.13 ± 0.12 | -1.27 ± 0.14
ACCAAGCAAUAUUACGCUGC | -1.62 ± 0.063 | -0.906 ± 0.076
GUUCAGCAAUAUUACGGGUU | -1.65 ± 0.089 | -0.108 ± 0.083
AGCGAGCAAUAUUACGCUGU | -3.15 ± 0.32 | -2.08 ± 0.22
AAGCAGCAAUAUUACGAGUU | -1.95 ± 0.077 | -1.07 ± 0.086
AAAUAGCAAUAUUACGCUUG | -1.77 ± 0.087 | -0.8 ± 0.12
GAAUAGCAAUAUUACGGAAG | -4.14 ± 0.39 | -2.1 ± 0.25

Sequence | self-splicing fitness (ln) (30 °C) | self-splicing fitness (ln) (37 °C)
CUGAAGCAAUAUUACGUGUC | -2.53 ± 0.14 | -2.81 ± 0.28
UGGUAGCAAUAUUACGGUCG | -0.382 ± 0.12 | -0.0256 ± 0.16
CCCUAGCAAUAUUACGAUUA | -1.88 ± 0.44 | -1.33 ± 0.34
AACUAGCAAUAUUACGCUAU | -2.88 ± 0.14 | -1.84 ± 0.13
AUUCAGCAAUAUUACGGUUU | -0.00618 ± 0.064 | -0.247 ± 0.072
ACAGAGCAAUAUUACGAAAA | – | -3.05 ± 0.4
UGGCAGCAAUAUUACGUACG | -0.616 ± 0.077 | -0.265 ± 0.12
CUCCAGCAAUAUUACGGGGU | -3.58 ± 0.17 | -2.61 ± 0.19
UCAUAGCAAUAUUACGGCAG | -1.31 ± 0.15 | -1.07 ± 0.15
AAGCAGCAAUAUUACGAGAA | – | -1.29 ± 0.33
UCUUAGCAAUAUUACGUAAA | -3.58 ± 0.29 | -2.38 ± 0.25
AGGCAGCAAUAUUACGGCGU | -0.172 ± 0.063 | -0.0953 ± 0.079
GGCCAGCAAUAUUACGAUAG | -3.68 ± 0.46 | -2.95 ± 0.23
GCUAAGCAAUAUUACGCACA | -0.938 ± 0.098 | -0.709 ± 0.11
CGCUAGCAAUAUUACGUUUA | -3.37 ± 0.23 | -2.56 ± 0.18
CCGUAGCAAUAUUACGAGGU | -3.33 ± 0.19 | -2.46 ± 0.22
CAAAAGCAAUAUUACGUCCU | -2.18 ± 0.087 | -0.725 ± 0.09
GAACAGCAAUAUUACGUUGU | -3.8 ± 0.21 | -2.24 ± 0.12
CGUCAGCAAUAUUACGUAUA | – | -0.724 ± 0.16
GUGAAGCAAUAUUACGCAAA | -2.12 ± 0.12 | -1.52 ± 0.16
